The results in this text go back to the supplement of paper PMC10567573.

± gives the standard deviation.

This data set is described as follows: protein stability index of a GFP-peptide fusion (GPS, HEK-293T) (PSI 1-6); higher = more stable.
Setting [1] is: treatment: DMSO, c terminus: a fixed tail appended.
Where [2] appears, read: treatment: MLN4924 1 uM, 8 h, c terminus: a fixed tail appended.
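Note: 24-mer peptide tiles fused after GFP, lentivirally expressed, FACS-sorted into six equal bins by GFP/DsRed ratio, decoded by Illumina sequencing, PSI is the read-weighted mean bin number.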

In turn, SLTAAETLALQGTQGQEKMMMMGP [ZNF232] registered a protein stability index under setting [1] of 4.01 ± 0.18 and a protein stability index under setting [2] of 4.14 ± 0.2.
As to CYTFSVLITFDNKAHSGRIPISLE [MCOLN1], the protein stability index was 3.58 ± 0.41 under setting [1] and 3.3 ± 0.62 under setting [2].
Turning to NHLPPQTKRSSRNPVFQDSWDTES [FAM104A], the protein stability index by setting is: under setting [1], 4.48 ± 0.29; under setting [2], 4.59 ± 0.46.
Regarding FEEYALVNQDILENKESWDKILAL [PRIM1], the protein stability index reads like this: under setting [1], 3.3 ± 0.31; under setting [2], 3.6 ± 0.45.
For AALRLHRLLRDSEAFCHANCSGPA [P3H4], the protein stability index runs as follows: under setting [1], 2.1 ± 0.1; under setting [2], 2.27 ± 0.27.
In the same order, the values of NNKYSYTSNSDDNMLKNIELFDKL [KCTD10] are 3.9 ± 0.068 and 3.9 ± 0.26.
Turning to QHNLRDSLENTLTESEAHYSSQLS [KRT34], the protein stability index runs as follows: under setting [1], 5.066 ± 0.033; under setting [2], 4.99 ± 0.23.
With TEVLRNMGFAAKAMKSVHENMDLN [CHMP4C], the protein stability index came out at 3.3 ± 0.34 under setting [1] and 3.46 ± 0.16 under setting [2].
LPSAQDINRLVGLQNTYMGYLDYR [GLT8D2]: the protein stability index reads like this: under setting [1], 2.52 ± 0.28; under setting [2], 2.52 ± 0.38.
On the same counts, the results for VVCQPNEFIMPDSAVVGDVLVLTK [SEPHS2] are 2.35 ± 0.19 and 2.56 ± 0.36.
For HTKPSQAPAVEVAPAGASYNPSFE [NOP53], the protein stability index by setting is: under setting [1], 4.86 ± 0.36; under setting [2], 4.95 ± 0.19.
In the same order, the values of KHLLNLGVEIDEINVYGNTALHIA [ANKRD44] are 2.19 ± 0.34 and 2.07 ± 0.48.
For PVTRNERHSYQVYRQPIPVQELVL [NET1], the protein stability index runs as follows: under setting [1], 2.79 ± 0.23; under setting [2], 2.88 ± 0.23.
In the same order, the values of PADCKRKEEAGAPGGGAGMAAGFP [CEBPB] are 5.12 ± 0.35 and 5.29 ± 0.098.
On the same counts, the results for LLISSCDWMAAMFGGPFVESSTRE [RHOBTB2] are 2.68 ± 0.52 and 2.37 ± 0.48.
In the same order, the values of KMAAVSKASGRFGLLQGTSAETSG [SEPHS2] are 3.94 ± 0.15 and 3.88 ± 0.25.
TMLATRNFSAAKSLLNKKADGVKP [CAMK2B] came in with a protein stability index under setting [1] of 3.73 ± 0.34 and a protein stability index under setting [2] of 4.02 ± 0.32.
On to LMSDLRRKRTAHERAKELYSSGEF [INTS4], for which the protein stability index amounted to 3.54 ± 0.19 under setting [1] and 3.65 ± 0.1 under setting [2].
Consider GEDQAFGDWLLTANGSEIHKHVHF [SLC22A15], for which the protein stability index reads like this: under setting [1], 3.03 ± 0.26; under setting [2], 3.09 ± 0.26.
The sequence PTFRFLTKMWHPNIYENGDVCISI [UBE2R2] had a protein stability index under setting [1] of 3.01 ± 0.68 and a protein stability index under setting [2] of 3.15 ± 0.71.
On the same counts, the results for NVLGAQLDVEAAHSEILKYFQSVT [STX5] are 2.76 ± 0.25 and 2.88 ± 0.33.
On the same counts, the results for TSVGMSFVAGGISGTVAAVLTLPF [SLC25A39] are 2.95 ± 0.77 and 2.54 ± 0.25.
In the same order, the values of PPLRVIVKDALFCSCLSDILRFIY [RHOBTB3] are 2.78 ± 0.16 and 2.84 ± 0.27.
As for AVVNELIDYGANVNQPNNNGFTPL [ANKRD44], the protein stability index runs as follows: under setting [1], 3.05 ± 0.2; under setting [2], 3.21 ± 0.17.
In the case of VGEPEFHYIAGAHGNEVLGRELLL [CPXM2], the protein stability index under setting [1] was determined as 2.88 ± 0.62 and the protein stability index under setting [2] came to 3.25 ± 0.2.
In the case of KNSLFPSPISSISPGLHSFTDHQR [KCNK9], the protein stability index is 3.3 ± 0.25 under setting [1] and 3.27 ± 0.38 under setting [2].
For SLGPALSTGPRGLCAMPQTGDAF [VENTX], the protein stability index is, setting by setting: (treatment: DMSO, c terminus: native) 2.44 ± 0.12; (treatment: MLN4924 1 uM, 8 h, c terminus: native) 2.3 ± 0.11.
In the case of SEGKVLTLAALLLNRSESDIRYLL [FEM1B], the protein stability index is, setting by setting: under setting [1], 2.43 ± 0.56; under setting [2], 2.38 ± 0.24.
In the same order, the values of KEAQYIRTELVEQAFRAIDRADYY [PCMTD2] are 2.71 ± 0.27 and 2.88 ± 0.36.
